Data published in publication PMC6208366.

Legend:
[1] = target: human full-length Hsp90β (human) (UniProt P08238); test: ITC; conditions: domain or fragment
[2] = target: IANBD-labeled Hsp90 M362C (human); test: stopped-flow fluorescence; IANBD-labeled Hsp90 M362C (1 µM) mixed with equal volumes of FKBP51, FK1-FK2, FK2-TPR or buffer, pseudo-first-order, 37 °C, 25 mM sodium phosphate/300 mM NaCl pH 7.2; rates as fluorescence increase at 20 s

Chain of human full-length Hsp90β (human) (P08238 whole entry, the tested form may be a part): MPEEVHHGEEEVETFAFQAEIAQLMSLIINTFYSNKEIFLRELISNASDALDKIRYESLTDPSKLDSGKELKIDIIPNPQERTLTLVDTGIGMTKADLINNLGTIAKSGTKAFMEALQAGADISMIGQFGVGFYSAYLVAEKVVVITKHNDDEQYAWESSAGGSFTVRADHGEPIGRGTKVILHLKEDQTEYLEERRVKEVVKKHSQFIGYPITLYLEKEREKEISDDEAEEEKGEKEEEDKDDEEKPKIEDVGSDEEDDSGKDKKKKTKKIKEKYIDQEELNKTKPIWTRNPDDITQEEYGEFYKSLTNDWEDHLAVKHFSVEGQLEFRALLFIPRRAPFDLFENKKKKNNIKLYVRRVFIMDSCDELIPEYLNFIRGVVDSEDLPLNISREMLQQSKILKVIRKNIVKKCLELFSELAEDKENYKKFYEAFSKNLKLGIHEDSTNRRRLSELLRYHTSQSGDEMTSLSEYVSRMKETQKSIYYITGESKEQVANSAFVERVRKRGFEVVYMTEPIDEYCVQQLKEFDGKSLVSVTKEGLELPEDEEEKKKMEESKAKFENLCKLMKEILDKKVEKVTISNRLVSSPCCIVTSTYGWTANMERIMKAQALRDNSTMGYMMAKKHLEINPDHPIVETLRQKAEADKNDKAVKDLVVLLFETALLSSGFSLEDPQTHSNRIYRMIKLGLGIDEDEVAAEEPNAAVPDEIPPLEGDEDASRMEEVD
Chain of FK2-TPR (which lacks FK1) (Q13451 whole entry): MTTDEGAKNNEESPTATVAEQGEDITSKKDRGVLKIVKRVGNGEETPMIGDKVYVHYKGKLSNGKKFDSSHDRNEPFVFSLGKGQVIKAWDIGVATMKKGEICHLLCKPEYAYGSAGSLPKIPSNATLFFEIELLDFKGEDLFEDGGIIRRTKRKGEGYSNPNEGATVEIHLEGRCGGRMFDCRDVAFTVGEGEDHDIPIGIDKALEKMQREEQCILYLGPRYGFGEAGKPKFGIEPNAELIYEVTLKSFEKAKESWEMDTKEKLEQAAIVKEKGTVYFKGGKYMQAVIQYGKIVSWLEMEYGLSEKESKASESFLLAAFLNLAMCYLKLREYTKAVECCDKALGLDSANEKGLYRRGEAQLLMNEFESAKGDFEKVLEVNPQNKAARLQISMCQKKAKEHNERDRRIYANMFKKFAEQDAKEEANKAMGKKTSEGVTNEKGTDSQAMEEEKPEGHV

Kd [1] [nM]	ΔF (rate of Hsp90 binding, fluorescence increase) [2] [s⁻¹]	Substance
728	–	FK2-TPR (which lacks FK1) (from UniProt Q13451 1-457)
–	0.0027	FK2-TPR (which lacks FK1) (from UniProt Q13451 1-457) (domain or fragment)
